Measurements reported in patent publication US20260272830A1, “Ocular Hydrogel Compositions” (The University of Birmingham, priority 2018, published 2026).

How the values were obtained:
[1] = molecular target: T1, collagen type I (rat tail) (Rattus norvegicus, UniProt P02454+P02466); test: Collagen fibrillogenesis turbidity assay; format: biochemical
T1 construct: collagen type I (rat tail; Corning, UK); purchased Corning, UK; host or cells: rat tail (tissue-derived)
Procedure: Collagen fibrillogenesis: For the dose response curves, 75 μl of PBS was added to each well of a 96 well plate kept on ice. Varying hrDecorin doses were prepared by adding 400 μg/ml of hrDecorin to the first well and subsequently serial diluting (2-fold dilution) across the plate. Following dilution, a further 150 μl of PBS buffer was added to each well. Then, 75 μl of collagen type I (rat tail; Corning, UK) (800 μg/ml) was added to each well and incubated for 2 hours at 37° C. Subsequent absorbance readings were taken using a 405 nm plate reader. Each assay consisted of duplicate blank controls, and triplicate standard dilutions followed by triplicate sample dilutions. Kinetics of fibril formation were determined using a similar setup as the dose response, without serial dilution; incubating the samples within the plate reader, and taking data points every 2 minutes.

[2] = hrDecorin release from the fluid gel (ELISA); format: physicochemical; settings: cumulative release over 4 hours (240 mins), DMEM, 37° C.
Procedure: Levels of hrDecorin release from the gel were determined cumulatively, by placing 1 ml of the fluid gel containing hrDecorin in a 6 well plate. Then 2 ml of DMEM was placed over the sample and the plates were incubated at 37° C. At each time point, the media was removed for measurement of hrDecorin, and replaced with fresh media. Decorin release was quantified using an ELISA specific for human Decorin (R&D systems, Minneapolis, USA) in accordance with the manufacturer's protocol.

[3] = turbidity at 405 nm, 2 hours at 37° C.

T1 sequence (P02454 152-1207 limits assumed): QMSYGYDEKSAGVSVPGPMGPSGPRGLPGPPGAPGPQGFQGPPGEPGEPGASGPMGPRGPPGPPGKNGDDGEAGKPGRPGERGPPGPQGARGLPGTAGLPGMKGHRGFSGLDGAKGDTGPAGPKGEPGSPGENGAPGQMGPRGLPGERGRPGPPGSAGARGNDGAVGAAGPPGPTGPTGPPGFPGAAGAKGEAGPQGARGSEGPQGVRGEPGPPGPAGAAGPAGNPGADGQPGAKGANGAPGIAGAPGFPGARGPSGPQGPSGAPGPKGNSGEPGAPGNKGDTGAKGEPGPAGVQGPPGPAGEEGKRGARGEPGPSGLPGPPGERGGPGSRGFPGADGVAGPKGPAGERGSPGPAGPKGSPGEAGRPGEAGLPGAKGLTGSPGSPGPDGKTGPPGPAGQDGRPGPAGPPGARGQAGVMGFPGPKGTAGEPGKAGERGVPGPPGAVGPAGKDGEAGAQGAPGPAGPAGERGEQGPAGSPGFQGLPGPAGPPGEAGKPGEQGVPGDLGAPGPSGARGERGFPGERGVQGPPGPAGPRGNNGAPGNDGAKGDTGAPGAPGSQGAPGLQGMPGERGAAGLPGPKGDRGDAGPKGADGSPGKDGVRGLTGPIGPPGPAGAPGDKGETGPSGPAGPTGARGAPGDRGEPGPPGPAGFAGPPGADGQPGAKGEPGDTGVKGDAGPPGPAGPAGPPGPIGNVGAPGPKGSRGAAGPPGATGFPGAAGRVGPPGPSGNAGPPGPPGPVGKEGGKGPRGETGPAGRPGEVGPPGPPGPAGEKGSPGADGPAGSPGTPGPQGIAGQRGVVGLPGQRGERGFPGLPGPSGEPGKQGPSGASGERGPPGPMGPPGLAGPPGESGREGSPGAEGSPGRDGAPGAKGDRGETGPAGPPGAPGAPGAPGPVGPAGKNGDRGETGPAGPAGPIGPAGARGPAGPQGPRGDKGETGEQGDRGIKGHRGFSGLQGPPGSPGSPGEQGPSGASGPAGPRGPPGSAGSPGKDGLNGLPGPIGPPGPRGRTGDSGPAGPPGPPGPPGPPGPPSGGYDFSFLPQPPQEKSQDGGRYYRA
T1 sequence (P02466 86-1125 limits assumed): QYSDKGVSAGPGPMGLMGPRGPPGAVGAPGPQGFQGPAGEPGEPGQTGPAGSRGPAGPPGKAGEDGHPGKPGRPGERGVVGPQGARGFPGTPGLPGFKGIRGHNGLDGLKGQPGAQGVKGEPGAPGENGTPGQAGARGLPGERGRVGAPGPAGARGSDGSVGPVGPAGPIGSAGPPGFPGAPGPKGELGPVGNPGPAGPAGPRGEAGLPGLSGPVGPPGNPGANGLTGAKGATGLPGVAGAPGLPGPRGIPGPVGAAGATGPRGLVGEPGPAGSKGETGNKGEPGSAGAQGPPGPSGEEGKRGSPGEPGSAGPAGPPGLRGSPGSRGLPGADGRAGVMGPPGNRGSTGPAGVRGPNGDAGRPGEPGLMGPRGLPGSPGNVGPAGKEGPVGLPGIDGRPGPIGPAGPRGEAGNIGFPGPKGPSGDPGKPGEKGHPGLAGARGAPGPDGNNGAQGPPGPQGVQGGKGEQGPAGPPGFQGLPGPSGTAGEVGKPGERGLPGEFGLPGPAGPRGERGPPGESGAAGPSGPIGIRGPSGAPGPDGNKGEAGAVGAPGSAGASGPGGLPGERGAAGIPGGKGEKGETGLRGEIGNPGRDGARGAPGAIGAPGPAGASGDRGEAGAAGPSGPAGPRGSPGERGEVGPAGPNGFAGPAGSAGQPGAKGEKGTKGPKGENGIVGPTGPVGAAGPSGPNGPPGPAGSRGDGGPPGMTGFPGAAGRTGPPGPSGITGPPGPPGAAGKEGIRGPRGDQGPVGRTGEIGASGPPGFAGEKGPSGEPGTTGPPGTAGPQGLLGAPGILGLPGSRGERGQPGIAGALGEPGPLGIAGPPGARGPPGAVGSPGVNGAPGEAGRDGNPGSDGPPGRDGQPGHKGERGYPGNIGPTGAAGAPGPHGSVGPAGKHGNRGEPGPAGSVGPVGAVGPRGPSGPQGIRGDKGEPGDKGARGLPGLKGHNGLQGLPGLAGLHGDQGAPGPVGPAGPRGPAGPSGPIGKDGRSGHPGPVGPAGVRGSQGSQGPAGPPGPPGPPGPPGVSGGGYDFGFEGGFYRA

B1: hrDecorin: human recombinant decorin (Galacorin™; Catalent), anti-fibrotic small leucine-rich proteoglycan (protein, UniProt P07585 31-359, looked up)
Decorin: DEASGIGPEVPDDRDFEPSLGPVCPFRCQCHLRVVQCSDLGLDKVPKDLPPDTTLLDLQNNKITEIKDGDFKNLKNLHALILVNNKISKVSPGAFTPLVKLERLYLSKNQLKELPEKMPKTLQELRAHENEITKVRKVTFNGLNQMIVIELGTNPLKSSGIENGAFQGMKKLSYIRIADTNITSIPQGLPPSLTELHLDGNKISRVDAASLKGLNNLAKLGLSFNSISAVDNGSLANTPHLRELHLDNNKLTRVPGGLAEHKYIQVVYLHNNNISVVGSSDFCPPGHNTKKASYSGVSLFSNPVQYWEIQPSTFRCVYVRSAIQLGNYK
[1]; [3]
  concentration at which minimum turbidity is achieved, above which no further reduction occurs: > 10000 ng/mL
  critical concentration above which hrDecorin inhibits fibrillogenesis: 0.5 μg/ml
[1]; turbidity read every 2 minutes
  kinetics of fibril formation: slowing the onset of fibrillogenesis
[2]
  rate of release of hrDecorin from the eye drop system: almost linear over time
